The text below walks through data of article PMC4824100.

For one series, the target named is T1, FKBP25 (FKBP3) wild type (Homo sapiens, UniProt Q00688 1-224).
T1 sequence: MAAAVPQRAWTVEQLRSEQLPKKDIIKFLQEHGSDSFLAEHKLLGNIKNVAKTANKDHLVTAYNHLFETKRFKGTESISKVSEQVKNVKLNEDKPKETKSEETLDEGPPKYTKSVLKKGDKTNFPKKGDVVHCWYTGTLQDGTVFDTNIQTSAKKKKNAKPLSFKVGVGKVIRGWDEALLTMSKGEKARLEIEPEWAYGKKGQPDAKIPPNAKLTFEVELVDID
The series can be described thus: NMR PRE.

Another series concerns the target YY1-DBD (UniProt P25490 286-414). The experiment in a line: ITC. (In general: ITC needs no label: the signal is the heat of the interaction.)

Chain of YY1-DBD (P25490 286-414): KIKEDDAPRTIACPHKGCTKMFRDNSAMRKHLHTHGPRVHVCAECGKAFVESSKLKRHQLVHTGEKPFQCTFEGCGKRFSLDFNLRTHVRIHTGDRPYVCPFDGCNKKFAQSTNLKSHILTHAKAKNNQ

B1: DNA-2 (dT-EDTA at position 27) (dsDNA)
DNA 1: AGGGTCTCCATTTTGAAGCATGC
DNA 2: GCATGCTTCAAAATGGAGACCCT
modifications: dT-EDTA at residue 27 (T4 of strand 2; numbering 24-46 on antisense)
As for B1, in the series with FKBP25 (FKBP3) wild type, the binding result is recorded as “binds”.

B2: DNAYY1 23-bp (dsDNA)
DNA 1: AGGGTCTCCATTTTGAAGCATGC
DNA 2: GCATGCTTCAAAATGGAGACCCT
Broadly, the Kd is the free concentration of one partner at which half of the binding sites on the other are occupied at equilibrium, for simple one-to-one binding. A lower Kd goes with tighter binding. Regarding B2, binding with YY1-DBD was put at a Kd of 390 ± 600 nM.

B3: DNA-1 (dT-EDTA at position 5) (dsDNA)
DNA 1: AGGGTCTCCATTTTGAAGCATGC
DNA 2: GCATGCTTCAAAATGGAGACCCT
modifications: dT-EDTA at T5 of strand 1 (Mn2+ or Ca2+ chelated)
Regarding B3, in the series with FKBP25 (FKBP3) wild type, the binding result is given as “binds”.
